B1: Pistol ribozyme (parent)
chain: GGGUCGUUGUUCCAUAAUCGCGUGGAUAUGGCACGCAAGUUUCUACCGGGCACCGUAAAUGUCCGACUGGAGCCGUUCGGGCGGCUAUAAACAGACCUCAGGCCCGAAGCGUGGCGGCACCUGCCGCCGGUGGUAAAAAAGAUCGGAAGAGCACACGUCU

Variants of: B1
Test: aptazyme ON/OFF ratio, guanine; higher = stronger switching; co-transcriptional cleavage with and without guanine

Row | Variant | aptazyme ON/OFF ratio
1 | GGGUCGACUCACAAUAAUCGCGUGGAUAUGGCACGCAAGUUUCUACCGGGCACCGUAAAUGUCCGACUGGAGCCGUUCGGGCGGCUAUAAACAGACCUCAGGCCCGAAGCGUGGCGGCACCUGCCGCCGGUGGUAAAAAAGAUCGGAAGAGCACACGUCU | 1.1
2 | GGGUCGACUCACGAUAAUCGCGUGGAUAUGGCACGCAAGUUUCUACCGGGCACCGUAAAUGUCCGACUGGAGCCGUUCGGGCGGCUAUAAACAGACCUCAGGCCCGAAGCGUGGCGGCACCUGCCGCCGGUGGUAAAAAAGAUCGGAAGAGCACACGUCU | 1.09
3 | GGGUCGACUCACUAUAAUCGCGUGGAUAUGGCACGCAAGUUUCUACCGGGCACCGUAAAUGUCCGACUGGAGCCGUUCGGGCGGCUAUAAACAGACCUCAGGCCCGAAGCGUGGCGGCACCUGCCGCCGGUGGUAAAAAAGAUCGGAAGAGCACACGUCU | 1.12
4 | GGGUCGACUCUCGAUAAUCGCGUGGAUAUGGCACGCAAGUUUCUACCGGGCACCGUAAAUGUCCGACUGGAGCCGUUCGGGCGGCUAUAAACAGACCUCAGGCCCGAAGCGUGGCGGCACCUGCCGCCGGUGGUAAAAAAGAUCGGAAGAGCACACGUCU | 1.06
5 | GGGUCGACUCUCAAUAAUCGCGUGGAUAUGGCACGCAAGUUUCUACCGGGCACCGUAAAUGUCCGACUGGAGCCGUUCGGGCGGCUAUAAACAGACCUCAGGCCCGAAGCGUGGCGGCACCUGCCGCCGGUGGUAAAAAAGAUCGGAAGAGCACACGUCU | 1.09
6 | GGGUCGACUCUCUAUAAUCGCGUGGAUAUGGCACGCAAGUUUCUACCGGGCACCGUAAAUGUCCGACUGGAGCCGUUCGGGCGGCUAUAAACAGACCUCAGGCCCGAAGCGUGGCGGCACCUGCCGCCGGUGGUAAAAAAGAUCGGAAGAGCACACGUCU | 1.19
7 | GGGUCGACUCCCCAUAAUCGCGUGGAUAUGGCACGCAAGUUUCUACCGGGCACCGUAAAUGUCCGACUGGAGCCGUUCGGGCGGCUAUAAACAGACCUCAGGCCCGAAGCGUGGCGGCACCUGCCGCCGGUGGUAAAAAAGAUCGGAAGAGCACACGUCU | 0.995
8 | GGGUCGACUCACCAUAAUCGCGUGGAUAUGGCACGCAAGUUUCUACCGGGCACCGUAAAUGUCCGACUGGAGCCGUUCGGGCGGCUAUAAACAGACCUCAGGCCCGAAGCGUGGCGGCACCUGCCGCCGGUGGUAAAAAAGAUCGGAAGAGCACACGUCU | 1.23
9 | GGGUCGACUCCAGAUAAUCGCGUGGAUAUGGCACGCAAGUUUCUACCGGGCACCGUAAAUGUCCGACUGGAGCCGUUCGGGCGGCUAUAAACAGACCUCAGGCCCGAAGCGUGGCGGCACCUGCCGCCGGUGGUAAAAAAGAUCGGAAGAGCACACGUCU | 1.18
10 | GGGUCGACUCCAAAUAAUCGCGUGGAUAUGGCACGCAAGUUUCUACCGGGCACCGUAAAUGUCCGACUGGAGCCGUUCGGGCGGCUAUAAACAGACCUCAGGCCCGAAGCGUGGCGGCACCUGCCGCCGGUGGUAAAAAAGAUCGGAAGAGCACACGUCU | 1.09
11 | GGGUCGACUCCAUAUAAUCGCGUGGAUAUGGCACGCAAGUUUCUACCGGGCACCGUAAAUGUCCGACUGGAGCCGUUCGGGCGGCUAUAAACAGACCUCAGGCCCGAAGCGUGGCGGCACCUGCCGCCGGUGGUAAAAAAGAUCGGAAGAGCACACGUCU | 1.06
12 | GGGUCGACUCAGCAUAAUCGCGUGGAUAUGGCACGCAAGUUUCUACCGGGCACCGUAAAUGUCCGACUGGAGCCGUUCGGGCGGCUAUAAACAGACCUCAGGCCCGAAGCGUGGCGGCACCUGCCGCCGGUGGUAAAAAAGAUCGGAAGAGCACACGUCU | 1.13
13 | GGGUCGACUCAACAUAAUCGCGUGGAUAUGGCACGCAAGUUUCUACCGGGCACCGUAAAUGUCCGACUGGAGCCGUUCGGGCGGCUAUAAACAGACCUCAGGCCCGAAGCGUGGCGGCACCUGCCGCCGGUGGUAAAAAAGAUCGGAAGAGCACACGUCU | 1.14
14 | GGGUCGACUCAUCAUAAUCGCGUGGAUAUGGCACGCAAGUUUCUACCGGGCACCGUAAAUGUCCGACUGGAGCCGUUCGGGCGGCUAUAAACAGACCUCAGGCCCGAAGCGUGGCGGCACCUGCCGCCGGUGGUAAAAAAGAUCGGAAGAGCACACGUCU | 1.13
15 | GGGUCGACUCAGUAUAAUCGCGUGGAUAUGGCACGCAAGUUUCUACCGGGCACCGUAAAUGUCCGACUGGAGCCGUUCGGGCGGCUAUAAACAGACCUCAGGCCCGAAGCGUGGCGGCACCUGCCGCCGGUGGUAAAAAAGAUCGGAAGAGCACACGUCU | 1.11
16 | GGGUCGACUCAGGAUAAUCGCGUGGAUAUGGCACGCAAGUUUCUACCGGGCACCGUAAAUGUCCGACUGGAGCCGUUCGGGCGGCUAUAAACAGACCUCAGGCCCGAAGCGUGGCGGCACCUGCCGCCGGUGGUAAAAAAGAUCGGAAGAGCACACGUCU | 1.22
17 | GGGUCGACUCAGAAUAAUCGCGUGGAUAUGGCACGCAAGUUUCUACCGGGCACCGUAAAUGUCCGACUGGAGCCGUUCGGGCGGCUAUAAACAGACCUCAGGCCCGAAGCGUGGCGGCACCUGCCGCCGGUGGUAAAAAAGAUCGGAAGAGCACACGUCU | 1.11
18 | GGGUCGACUCAAAAUAAUCGCGUGGAUAUGGCACGCAAGUUUCUACCGGGCACCGUAAAUGUCCGACUGGAGCCGUUCGGGCGGCUAUAAACAGACCUCAGGCCCGAAGCGUGGCGGCACCUGCCGCCGGUGGUAAAAAAGAUCGGAAGAGCACACGUCU | 1.12
